Reference: US20220047715A1, “FORCE-DEPENDENT DRUG RELEASE SYSTEM TO ENHANCE SELECTIVE KILLING AND MINIMIZE ADVERSE EFFECTS IN CANCER TREATMENT” (THE JOHNS HOPKINS UNIVERSITY, priority 2018, published 2022)

What was measured:
[1] = tested on: CTLA4-CD80 bond; assay: Micropillar-based measurement for CTLA4-CD80 tension; assay type: cell-based, human; settings: cancer cells on micropillars, FIG. 3b
Protocol: FIG. 3: Micropillar-based measurement for CTLA4-CD80 tension. (a) A cancer cell is cultured on micropillars. The forces transmitted to the CTLA4-CD80 bond bend the micropillars. (b) Cancer cells can generate ˜2-fold higher stress than normal cells. […] (c) Cancer cells generate 4-fold higher stress transmitted to the CTLA4-CD80 bond compared to integrin-fibronectin bond. Scale bar: 5 μm.
To determine which of the two possibilities described above is likely to be true, we measured the forces CTLA4 exerts on the CD80 upon binding in both normal cells and breast cancer cells. Since trans-endocytosis requires high forces to physically remove CD80 from the cell membrane of the APC, followed by internalization, we tested whether cancer cells yield higher forces if trans-endocytosis is the unique mechanism used by cancer cells to achieve immunosuppression. We tested the human breast cancer cells MDA-MB-231 and their normal counterpart MCF10A cells, as well as the mouse breast cancer cells EO771 and their normal counterpart EPH4-EV, all of which express CTLA4 (FIG. 1). […] We also measured the forces transmitted via CTLA4 in Treg cells purified from mouse spleens. […] Moreover, when HEK293 cells, in which endogenous CTLA4 is not detected, were transfected with CTLA4 cDNA, only minimal level of forces and no trans-endocytosis of CD80 could be recorded (FIG. 2 panel c).

[2] = cited from earlier work

Molecule	force generation transmitted through the CTLA4-CD80 bond [1]	patients experiencing skin lesions, colitis, hepatitis, hypophysitis, thyroiditis and other immune-related events ([2]; Ipilimumab alone, 81 reports, 1265 patients, 22 clinical trials) [%]	patients experiencing adverse events ([2]; one study) [%]
Cc1ccc2c(c1)C(=O)C1(O)CCN(c3ccccc3)C1=N2 (stereo not drawn) [Blebbistatin]	does not inhibit		
Ipilimumab		72	85
